According to patent US6017747A, “Nucleic acids encoding a collagenase” (The Regents of the University of California, priority 1997, dated 2000):

B1: Trypsin: Recombinant rat trypsin purified by published techniques (protein, UniProt P00763 24-246, looked up)
Anionic trypsin-2: IVGGYTCQENSVPYQVSLNSGYHFCGGSLINDQWVVSAAHCYKSRIQVRLGEHNINVLEGNEQFVNAAKIIKHPNFDRKTLNNDIMLIKLSSPVKLNARVATVALPSSCAPAGTQCLISGWGNTLSSGVNEPDLLQCLDAPLLPQADCEASYPGKITDNMVCVGFLEGGKDSCQGDSGGPVVCNGELQGIVSWGYGCALPDNPGVYTKVCNYVDWIQDTIAAN

Key:
[1] = Steady state kinetics versus the Suc-AAP-Xaa-pNA substrate set; type: biochemical; details: for r of correlation for log kcat or log (kcat /Km) versus P1 residue volume: Val and Ile omitted for chymotrypsin, Nva and Leu deleted for elastase; for correlation of log (kcat /Km) with π: hydrophobicity constant π
Description: Recombinant rat trypsin was purified by published techniques. Other reagents were purchased from the following sources: TLCK treated bovine chymotrypsin (Sigma), porcine elastase (Calbiochem), bovine calf skin collagen (US Biochemical), Suc-AAPAbu-pNA (Bachem of California) and Z-GPR-Sbzl (Enzyme Systems Products). All other substrates were from Bachem Bioscience. All enzyme active site titrations, substrate calibrations, kinetic assays and collagen digestions were carried out by conventional methods. Briefly, pNA kinetic assays were monitored at 410 nm (E410 =8,480 M^-1 cm^-1) in 50 mM Tris, 100 mM NaCl, 20 mM CaCl2, pH 8.0 at 25° C. 1 to 4% DMF or 2% Me2 SO was present in the final reaction buffer. Benzylthioester kinetic assays were monitored at 324 nm (E324 =19,800 M^-1 cm^-1) in the above buffer at 25° C. with the inclusion of 250 μM dithiodipyridine (Chemical Dynamics) and 2% DMF. AMC spectrofluorimetric assays were monitored at an excitation wavelength of 380 nm and an emission wavelength of 460 nm, under conditions identical to those for pNA. Assays were done in duplicate for 5 substrate concentrations, except for Suc-AAP-Asp-pNA, for which the kcat /Km was determined using 3 substrate concentrations in duplicate. The steady state kinetic parameters were determined by non-linear regression fit to the Michaelis Menten equation. Standard deviation in kcat /Km was generally less than 10%, though individual rate and binding constants varied to a greater extent. […] Kinetic parameters were plotted versus P1 residue volume and the hydrophobicity constant, π.
The Michaelis constants of the recombinant collagenase were determined for a matched set of 15 Suc-AAP-Xaa-pNA substrates, varying only in the P1 residue. […] The remaining 10 substrates Ala, Abu (2-aminobutyric acid), Nva (norvaline), Val, Nle (norleucine), Ile, Met, Orn (ornithine), Asp and Glu were selected to more fully map the specificity of crab collagenase for hydrophobic, basic and acidic residues. The substrate preference of the collagenase is quite broad. […] Acidic residues are generally poor substrates. […] This implies the existence of several distinct S1 sites or a single flexible site. […] The correlation is improved and slope essentially unchanged if only the hydrophobic residues Ala, Abu (2-aminobutyric acid), Nva (norvaline), Nle (norleucine), Leu, Met and Phe are included. […] It is unclear how the enzyme binds the neutral hydrophilic and basic residues so as to minimize the effects of charge or polarity in the transition state. Bias or insensitivity in the data set may also affect the interpretation of the correlations.
The steady state kinetic parameters of chymotrypsin and elastase versus the Suc-AAP-Xaa-pNA substrate set were determined under conditions identical to those for crab collagenase. This was necessary in order to accurately compare the activities of these different enzymes.

[2] = single residue esters; cited from earlier work
[3] = Single residue versus peptidyl P1-Phe substrate efficiency; type: biochemical
Description: (§1) Recombinant rat trypsin was purified by published techniques. Other reagents were purchased from the following sources: TLCK treated bovine chymotrypsin (Sigma), porcine elastase (Calbiochem), bovine calf skin collagen (US Biochemical), Suc-AAPAbu-pNA (Bachem of California) and Z-GPR-Sbzl (Enzyme Systems Products). All other substrates were from Bachem Bioscience. All enzyme active site titrations, substrate calibrations, kinetic assays and collagen digestions were carried out by conventional methods. Briefly, pNA kinetic assays were monitored at 410 nm (E410 =8,480 M^-1 cm^-1) in 50 mM Tris, 100 mM NaCl, 20 mM CaCl2, pH 8.0 at 25° C. 1 to 4% DMF or 2% Me2 SO was present in the final reaction buffer. Benzylthioester kinetic assays were monitored at 324 nm (E324 =19,800 M^-1 cm^-1) in the above buffer at 25° C. with the inclusion of 250 μM dithiodipyridine (Chemical Dynamics) and 2% DMF. AMC spectrofluorimetric assays were monitored at an excitation wavelength of 380 nm and an emission wavelength of 460 nm, under conditions identical to those for pNA. Assays were done in duplicate for 5 substrate concentrations, except for Suc-AAP-Asp-pNA, for which the kcat /Km was determined using 3 substrate concentrations in duplicate. The steady state kinetic parameters were determined by non-linear regression fit to the Michaelis Menten equation. […]

[4] = Single residue versus peptidyl P1-Ala substrate efficiency; type: biochemical
Description: as §1

recombinant collagenase = biological target: T1, recombinant collagenase (Leptuca pugilator, UniProt P00771); assay: Inhibition of collagenolytic activity of recombinant collagenase; type: biochemical, Uca pugilator; details: recombinant enzyme
T1 construct: the mature form of the cloned collagenase (illustrated in the boxed section) has 226 amino acid residues; made in house; host or cells: Saccharomyces cerevisiae (strain AB110 or DM101α), PyFC vector
T1 sequence (P00771 1-226 V95S): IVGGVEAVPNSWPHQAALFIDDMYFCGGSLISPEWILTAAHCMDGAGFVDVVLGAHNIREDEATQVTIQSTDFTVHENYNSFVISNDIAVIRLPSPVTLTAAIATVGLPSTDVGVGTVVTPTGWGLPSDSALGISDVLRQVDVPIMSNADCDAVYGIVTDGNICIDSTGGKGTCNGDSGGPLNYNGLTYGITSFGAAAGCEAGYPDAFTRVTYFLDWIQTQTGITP
Source text: The collagenolytic activity of the recombinant collagenase was compared directly to that of the endogenous enzyme isolated from the crab hepatopancreas. The specificity and rate of collagen cleavage are similar.

[5] = Single residue versus peptidyl P1-Arg substrate efficiency; type: biochemical
Description: as §1

| Molecule | correlation for log kcat or log (kcat /Km) versus P1 residue volume [1] | correlation of Km versus volume [1] | sensitivity of log (kcat /Km) to residue volume [1] | r of correlation for log kcat or log (kcat /Km) versus P1 residue volume [1] | correlation of log (kcat /Km) with π [1] | slope of correlation of log (k2 /KS) with π [2] | kcat /Km differential, single residue versus peptidyl substrate [3] | kcat /Km differential, single residue versus peptidyl substrate [4] | inhibition of collagenolytic activity (recombinant collagenase) | kcat /Km differential, single residue versus peptidyl substrate [5] [fold] |
| --- | --- | --- | --- | --- | --- | --- | --- | --- | --- | --- |
| Chymotrypsin | Strong positive | tight negative correlation | twice that of collagenase | ≤ 0.95 | also correlated with π | 2.2 | 10,000 fold | – | – | – |
| elastase: porcine elastase (Calbiochem) | negative | much weaker | twice that of collagenase | ≤ 0.95 | correlated well, with a slope equal and opposite that for chymotrypsin | – | – | 100,000 fold | – | – |
| NCCc1ccc(S(=O)(=O)F)cc1 [AEBSF] | – | – | – | – | – | – | – | – | completely inhibited | – |
| B1 | – | – | – | – | – | – | – | – | – | 100 |
